Experimental data from the supplement of paper PMC9170038.

Experiments:
MS2 coat protein [1] = assay: apparent KD of MS2 coat protein, switch ON state; designed switch direction (-1 OFF switch, 1 ON switch): 1; higher = weaker reporter binding; details: FMN input: 0 or 200 uM; Eterna round: R93 (includes R88 designs)
Method in brief: (§1)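 Titrations with SNAP-549-labelled MS2 coat protein ran in twofold steps from 0.7 or 1.5 nM to 3 µM, each step taking 0.8–1.5 h at the start and 10–20 min toward the end. The targets were designed RNA switches transcribed on-chip from Illumina sequencing clusters, held in 100 mM Tris-HCl pH 7.5, 80 mM KCl, 4 mM MgCl2, without or with constant ligand. Apparent KD was taken per design as the median of normalised cluster binding-curve fits.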

MS2 coat protein [2] = assay: apparent KD of MS2 coat protein, switch OFF state (with FMN for OFF switches, without FMN for ON switches); designed switch direction (-1 OFF switch, 1 ON switch): 1; higher = weaker reporter binding; details: FMN input: 0 or 200 uM; Eterna round: R93 (includes R88 designs)
Method in brief: as §1

Row | Sequence | apparent KD of MS2 coat protein (MS2 coat protein [1]) [µM] | apparent KD of MS2 coat protein (MS2 coat protein [2]) [µM]
1 | AGGAAACAUGAGGAUCACCCAUGUAAAAGGUGGUUAGGAUAUGCGAAAAGAAAAAGAAAAGCAGAAGGGACAAGAA [Inspired by JR's SameStare1_sub2] | 0.237 | 0.415
2 | AGGAAACAUGAGGAUCACCCAUGUAAAGAUGGGCGAGGAUAUCGAAAGAAAAGAAAGAAACGAGAAGGUGCAAAAG [59%, Flamingo, 1] | 0.409 | 0.251
3 | AGGAAACAUGAGGAUCACCCAUGUAUAAAAAUGGGAGGAUAUACAAAGACGAAAGUCAAAGUAGAAGGCCUAAAAA [76%, Meechl, 7] | 0.0188 | 0.0515
4 | AGGAGACAUGAGGAUCACCCAUGUGAGAAGAGGCGAGGAUAUCGAAAGAAAGAAGAGAAACGAGAAGGCGCGAGCA [salish99-SS1-020] | 0.0197 | 0.0371
5 | AGGAGACAUGAGGAUCACCCAUGUGCACGGUGAAGAGGAUAUGUGCGUGGAGAGACACGGACAGAAGGCUUAAGAA [JR_SameState1_Sub5] | 0.023 | 0.0389
6 | AUAAAACAUGAGGAUCACCCAUGUAAAAAAGCAUGAGGAUAUAUAAAAAGAAAAAGAAGAAUAGAAGGCAUAAUAA [JR_SS001_Sub1223] | 0.0607 | 0.0505
7 | AUAAAACAUGAGGAUCACCCAUGUAGAAACAUGGGAGGAUAUACAAAGACGAAAGUCAAAGUAGAAGGCCUAAAAG [Meechl MS2 SS1 2] | 0.104 | 0.0673
8 | AUAAAACAUGAGGAUCACCCAUGUAGAAAUAUGGGAGGAUAUACAAAGACGAAAGUCAAAGUAGAAGGCCUAAAAG [Mod of Meechl's design Meechl MS2 SS1 2] | 0.024 | 0.0662
9 | AUAAAACAUGAGGAUCACCCAUGUGAAAAUAUGGGAGGAUAUACGUAGACGAAAGUCGACGUAGAAGGCCUAAAAG [Same State 1.4n.2 (Mat - Mod of Eli - )] | 0.0288 | 0.0818
10 | AUAAAAGAAGCGAAGGAUAUCCAAAACUCAACAUGAGGAUCACCCAUGUAAAGAAAGAAAAAAUGGGAGAAGGUCGCAAAGAAUA [73%, More Fisker Same State 2, D3, 10] | 0.0118 | 0.0267
11 | AUAAAAUAAAAGGAGGAUAUCCAUAAUAAAACAUGAGGAUCACCCAUGUAAAAAAGAAGAAAAUGGGAGAAGGCCUAAAAUAAAU [SS2 M 27] | 0.0114 | 0.0236
12 | AUAAAAUAAACUGAGGAUAUCUAUAAUAAAACAUGAGGAUCACCCAUGUUUAAACAAAGAUCAUGGGAGAAGGCAGAAAAUAAAU [SS2 M 38] | 0.0378 | 0.0366
13 | AUAAAGAAAAGGCAGGAUAUGUAAACUAAAACAUGAGGAUCACCCAUGUGGGAAAUAAAAUAAAAACAGAAGGGCCAAAAGAAUA [Designing denovo 17] | 0.0191 | 0.0328
14 | AUAAUAUUAAGCAAGGAUAUACUAAAGUAAACAUGAGGAUCACCCAUGUAAAAAAAAAAACUCAUGUAGAAGGUGCAUAAAUAAA [moonwalk 10] | 0.00892 | 0.0331
15 | AUUCCAAAUAGUCAGGAUAUCAGAAGUAAGACAUGAGGAUCACCCAUGUACUUAGUAAAAGUAACUGAGAAGGGACAGGGUGUAA [JR_SS002_Sub405] | 0.0174 | 0.0161
16 | CAGAGACAUGAGGAUCACCCAUGUAGGAUUAUGGGAGGAUAUACAAAGACGAGAGUCAGAGUAGAAGGCCUAGGAA [salish99-ss1-141] | 0.0211 | 0.0576
17 | CGCGAACAUGAGGAUCACCCAUGUGAAAAACACAGAGGAUAUGUCGCAUGCGUGUAAAAGACAGAAGGCUGUCGCG [mod of top voted: #3] | 0.0197 | 0.084
18 | CGGAGACAUGAGGAUCACCCAUGUGAGAAGAGGCGAGGAUAUCGAAAGAAAGAAGAGAAACGAGAAGGCGCGAGUA [salish99-SS1-066] | 0.0203 | 0.0319
